Measured values: the DeepSol protein solubility set

Experiment: soluble on expression in E. coli; label from the status in PepcDB or PDB records

Sequence	soluble on expression in E. coli
MGHHHHHHSHMTNTNEAKPVNVLSAEVMITTAFQDADPMGVVYHGNYFRFFEKARHEMLEKIGYSYRDMMASGYVWPIIDTRVKYVKSIPYDHKIRVEATLTEWENRMRVDYVIYDAETNVRMTKAHTMQVAVSIETEEMCFVSPRIFTDKVEAYHNA	soluble
MSSNENSDDVPEQRQIVRRSRVYNPRDPSSPEPPYDPYPPGIHAQAGCATRPISAHIVPQALIEPIRLHREEDELAGTSSCRPVPQCDFNLESDRWEEDQLENPQIKSQWKGSETRPVANFARRQQRVLRTDWKHVDVQITVWEELKKVLEAAEIVDVTLNMMKTLNPDTKAMWLLKFHTTSLTEYLEDFESRAEYFNEMLLELDGIHPDLFTECSNYISQLKDVTHSRELQAVQVHLPKAVKNSDAQKVRFYLQLAGEAKKDIAVVLNNNKVKTLLIDNGFTL	not soluble
MKRVRLQEVAQVAGVSLGLASAVLNGRHVRARPETVERIREAAQRLGYVPDRMAQAMRWGRTGIIALVVPNFANPYYSALAVEVQRAAWEADLEVLVYANPTEDLAQVSRAVSARRVDGGIIVVSHYTPEELKAHLPLEIPWVGVGHALEPLPFDRVSFKDKEAAMDAVRYLADKGYRRIAHLAGPAPSPTAKARLEGYLEAVSALGMPALVQEGTFRYGDNQRALQTLLGWRADALLAGNDLMALEALAFLQDRGVPVPQGMAVVGFDGIPMGEWVRPQLTTIVRSPRASAQAALARLLARLEGAGEPPQEVWLDTSLRPGDSA	soluble
MVRKALWKECLRIGGKVPLLNGEKLREIFRSGRGTGRFAKALGIEYGVDTSFNMLKVAKERGIKVALAKGENLPFKSETFDSVFLVVTICFVENPKQVLKEAHRVLKRDGKLYLGLILKESKWAKFYEEKAKNGHPFYKHARFYSFFELKEMVKDIFSFEEMKSTLLEEPQDSEPVKNKEIKPGFYENSGFTCIRLSKKLLEHHHHHH	not soluble
AIATLEKKEYGAPGFWPGSMIGRVHAFETPAPLTRAQLDRLRDEFFETRTEGHLEIWTAIRAASHAQEAGDDELAYAIITAVGILPAEVGPAGEGLGERIPFAEQPLDRLLGMICGCCFPAFTRYRTLERVYDQRGFLYETPKECIATPSNVLPDESTEASAR	soluble
GSLYNDGNRDQRNFGRNQRNNNSNRYRNSRFNSRPRTRSREDDDEVHFDKTTFSKLIHVPKEDNSKEVTLDSLLEEGVLDKEIHKAITRMEFPGLTPVQQKTIKPILSSEDHDVIARAKTGTGKTFAFLIPIFQHLINTKFDSQYMVKAVIVAPTRDLALQIEAEVKKIHDMNYGLKKYACVSLVGGTDFRAAMNKMNKLRPNIVIATPGRLIDVLEKYSNKFFRFVDYKVLDEADRLLEIGFRDDLETISGILNEKNSKSADNIKTLLFSATLDDKVQKLANNIMNKKECLFLDTVDKNEPEAHERIDQSVVISEKFANSIFAAVEHIKKQIKERDSNYKAIIFAPTVKFTSFLCSILKNEFKKDLPILEFHGKITQNKRTSLVKRFKKDESGILVCTDVGARGMDFPNVHEVLQIGVPSELANYIHRIGRTARSGKEGSSVLFICKDELPFVRELEDAKNIVIAKQEKYEPSEEIKSEVLEAVTEEPEDISDIVISLISSYRSCIKEYRFSERRILPEIASTYGVLLNDPQLKIPVSRRFLDKLGLSRSPIGKAMFEIRDY	soluble
MLGVGKIGGAIVKSLLSCGAVVTGTGRRRETLERISRLGAEATVDNRLAAKVSDVVILSVKPYQLPRLLEEIRDVMEGKIVVSVVAGVRLSTLSRALEGSHVYRAMPNINALIGRSTTAVAEYTGDKRASFVESILSCMGSVYWIPEEWMDVWTALVGSMPAYVAVMIDSLTLGGVSAGLPREVAFKAVIDTLGATAEHLGKRDIHPSVLRDEVTTPAGTTIEGLKVIEGEGVDAALIRTVEAAARRAAAIGEAIDNEVRRSLNLRAAALEHHHHHH	not soluble
MRGSHHHHHHGSMDAQSAAKCLTAVRRHSPLVHSITNNVVTNFTANGLLALGASPVMAYAKEEVADMAKIAGALVLNIGTLSKESVEAMIIAGKSANEHGVPVILDPVGAGATPFRTESARDIIREVRLAAIRGNAAEIAHTVGVTDWLIKGVDAGEGGGDIIRLAQQAAQKLNTVIAITGEVDVIADTSHVYTLHNGHKLLTKVTGAGSLLTSVVGAFCAVEENPLFAAIAAISSYGVAAQLAAQQTADKGPGSFQIELLNKLSTVTEQDVQEWATIERVTVS	soluble
EKQSIHRTQLEALDSVITDLETSAQKGISLTEPEIFASLLETCYSLRAIDHGVRVHHLIPPYLLRNNLGISSKLVRLYASCGYAEVAHEVFDRMSKRDSSPFAWNSLISGYAELGQYEDAMALYFQMAEDGVKPDRFTFPRVLKACGGIGSVQIGEAIHRDLVKEGFGYDVYVLNALVVMYAKCGDIVKARNVFDMIPHKDYVSWNSMLTGYLHHGLLHEALDIFRLMVQNGIEPDKVAISSVLARVLSFKHGRQLHGWVIRRGMEWELSVANALIVLYSKRGQLGQACFIFDQMLERDTVSWNAIISAHSKNSNGLKYFEQMHRANAKPDGITFVSVLSLCANTGMVEDGERLFSLMSKEYGIDPKMEHYACMVNLYGRAGMMEEAYSMIVQEMGLEAGPTVWGALLYACYLHGNTDIGEVAAQRLFELEPDNEHNFELLIRIYSKAKRAEDVERVRQMMVDRGLET	soluble
MGSDKIHHHHHHMSKILMVGSGPVAIQLARLCNLHGEHMVDMVSRVHASTKSKRVFDAYHRDGFFSVMTQNDAHQCFSGKFTVRHFFKDVKDITQYYDVVILACTADAYRPILQQLSKSTLKRIKQIILVSPTLGSHMLVKQILSDVHCEGEVISFSTYLGDTRIFDKAQPHCVLTTRVKSKLFVGSTHSQSITLYKLKSLFDYLNIELTTMDTPLHAEIHNSSLYVHPPLFMNQFSLKAVFEGTKVPVYVYKLFPEGPITMTLIHEMRLMWQEMMMILKKLKVPSVNLLKFMVKENYPIRDETMREVDIESFENLSAIHQEYLLYVRYTAILIDPFSNPDDQGAYFDFSAVPYKHVDTDEQGVIHIPRMPSEDYYRTLMIQAIGRALNVATPMIDTMLLRYETTVKQYCDTHLHQQLSKQFELHHFKQDLALVTNYLTFYR	not soluble
MNERIFRENTRPVQVGNLTIGGSEELTIQSMTTTKTHDVEATVAEIHRLEEVGCQIVRVACPDERAANALSAIKKRIHIPLVADIHFDYRLALKAIDAGVDKIRINPGNIGRRDRVEKVVNAAKAKNIPIRIGVNAGSLEKKIIQKYGYPTAEGMVESALAHIKILEDLDFYDIIVSLKASDVNLAIEAYDKASRAFNYPLHLGITESGTQFAGGIKSAAGLGAILSLGIGNTLRVSLSADPVEEIKVAREVLKSFGLSSNAAMLISCPTCGRIEIDLIRIANEVENYIATIKAPIKVAVLGCAVNGPGEAREADIGIAGSNGEGLLFRHGKIIRKVPEAIMVEELKKEIDILAEEYFEKKTDLESLR	not soluble
MKQITIASRESKLALWQTNFVKNRIQLELNIPCEISTMKTQGDIILDQPLNKIGGKALFMKELEVAMLSNKADIAVHSLKDVPYQLPQGFCLAGFMPREDPRDAFVSNKYNSIDDLPKGAVVGTSSLRRKAQLLHYRDDLEIRDLRGNIQTRLSKLDNGDYDAIILASAGLIRLELVERITQFIPVEISLPAVGQGIVVIEALERDNDLLEKIQKLNCRESSRVATAERAFNQELKGGCHVAIGAYAELDNNQITLMAMVASSDGKKILKRKMIGDDPTKLGKLLAQEMIALGAYKILES	not soluble
MSPAQIIRTPHSFPPSFTGTSSSAENSHAQSPQQVLTRAFVASGELNAAFGRTSTASEQDFTSLLGTLQRELERKTLSFPDIAELANQLAEAAKGDQGGHWLGRDEQQTLKGMIDRCKSQLAHTHASDASYDPLAQVCENLKTARLHQSISQMTGEAHAKVRGVPDLLALIQLDPDVLAEKPVGMTSYVNFGSFICMAKARTAELSEDLRSDPNEVALLLHPHADTILELERLPDALAALTENCPDTPTRDDLRSLAKETGELLQQLRANDLLPRSEEVSSYQGETSVRSREVVEPKLTLCQAGGNGQGQLEASSARPESLRYAPTRAASSGSEARVPGQAVGGKIADDAQKVAGLYAEKKRTNWTQANGVAGKISHKIQSLLGMRDAGSRVQAFVAFMADGKGRPGATMLDLGDGWMRATRVIKGEAALIDFQCDSDGKVVDARHPGRFPVLPQGNEREAFKTVLQELKFRGAETLSKVPVYYVNRNTRGYVIPTHGYVVAGHPNRGRKSGAVLYGVGGDPKRGPVALDEKLLGHLVGRSDSKTSSKLSAPVKAAISALAGASFATREDFYDAYCAVRGDAVDPLERHNEISSIYRLLPLSTMEMWPKKADDYRVARPA	not soluble
SANKGQQPPYLHLAELTASQFLDIWKHFDADGNGYIEGKELDNFFSQLEIARRGAGVDPSNAAFKGRMTEFMQKFDKNKDGRIEMSELAQILPTEENFLLCFRQFVGSSTEFMAAWRKYDTDRSGFIEANELKGFLSDLLKKANRHYDDQKLQEYTQTILKMFDLNGDGKLGLSEMARLLPVQENFLLKFQGVRLSAEQFNAIFTYYDKDGNGYIDEQELDALLKDLYEKNNKEVDSKSLTGYKQSIMALSDGGKLYRSELEIVLCRDPML	soluble
MLSSHLSQICFSCRDPLGNLPADLIRKCTDLMDLNFAEGQRLRTLNKNWKLALPSFRKGAYREERPWLLYRERGSGETRFFDPVRERVHRGNDPRLADARFLGSTLGWLVMSESLDLNPRKTHQTFLYNPFISELQQLPELTLDSPYPTGVLRYGVLTGNPSDNNTYACLITDYLHEIGNRRDTYTLLIYYVAKTSGRWEQNWSVASMLVVGIFDTWYIESISPSPDKISIEIWPKRYDFTFQTQEWNVSNFIPVDPIQWDPFHDQSLYHVKHRLQLPENPSTLAIIIGTSTDRTRVRNKIIGDQSDDDDPRASDHIIDGVWVEVRP	soluble
MGSDKIHHHHHHMILKRISILNYKNLEQVEIGFSAKLNCFFGQNGMGKTNLLDAVYFLSFCKSSGNPIDSQNIRHEQDFFVIQGFYEAEDGTPEEIYCGMKRRSKKQFKRNKKEYSRFSDHIGFLPLVMVSPADSELIAGGSDERRRFMDVVISQYDKEYLEALIRYNKALAQRNTLLKSEFPVEEELFLVWEEMMAQAGEIVFRKREAFIEEFIPIFQSFYSFISQDKEQVGLSYDSHARDASLLEVLKQSRERDKIMGFSLRGIHKDELNMLLGDFPIKKEGSQGQNKTYLVALKLAQFDFLKRTGQTVPLLLLDDIFDKLDASRVEQIVKLVAGDNFGQIFITDTNREHLDRILQKVGSDYKVFRVDQGVINEMGAEQ	not soluble
MAHHHHHHMSSSVKDILLEGSTCSTDMKLNDFLRSKLGGRGVVDTNEKVAMEMFVQDPETFIQNERLLRIITASPSYQELERELDEMKILLEAINKLHDEDVFSLEQWRGYEGKDTVTPLARGKINGVLTHVLREERRWAEERAVREKQVELTLTTTIEDVLFRGRVRVKDMKLNDFITMEMEGRGILRANRNVLLKEFFKDPTRYIHDAGVLNEIQASDAYLMAERAVRDEMDMEKDLRKLYKNGVSNLFGWSVASAEIRASVRDITKSFLDAALEEARKPTTTIAPIKMEGLYESVYNARWHHVVEVPGGEGTGMEVKKGRPPQQWTYKKVGYCLERDDGAEQYGAARLRLMVLASDKGRAVLVGGD	not soluble
MGSDKIHHHHHHMCRLIGYLGNAIPLDELLYKQEHSLYQQSYSPLELKSGVVCADGVGVGWYDQVGKPFIYRNTIPMWNDPNLEELSNYVQSTCTVGYARLAGIGESLDISNCQPFRSDQLLFVHNGEISNFQQTLYRPIRESLSDATYRLIKGTTDSEHIFALLVQMWQSSPDSTLFWALGATLEKLTELASEYNTSFSANLIVSDGEAIAAIRYAYRTQAPTLYWSYDALKHPNQVIVASEPLSNNQNWTAFDEQSMLFFQAQSLEPRISLLKKFSAIGV	not soluble
